In patent US20200385445A1:
One block for each substance: values may come before it.

Experiments:
[1] = biological target: mouse PVRL2 splice variant 1 (sv1) over-expressed on HEK293 cells (RC-334) (mouse) (UniProt P32507); experiment: FACS on HEK293 OX mouse PVRL2 sv1
[2] = biological target: mouse PVRL2 endogenously expressed on B16-F10 cells (mouse) (UniProt P32507); experiment: FACS dose response on B16-F10 cells
[3] = biological target: mouse PVRL2 splice variant 2 (sv2) over-expressed on HEK293 cells (RC-335) (mouse) (UniProt P32507); experiment: FACS dose response on HEK293 OX mouse PVRL2
mouse PVRL2 splice variant 2 (sv2) over-expressed on HEK293 cells (RC-335) (mouse), sequence (P32507 32-530, change not shown): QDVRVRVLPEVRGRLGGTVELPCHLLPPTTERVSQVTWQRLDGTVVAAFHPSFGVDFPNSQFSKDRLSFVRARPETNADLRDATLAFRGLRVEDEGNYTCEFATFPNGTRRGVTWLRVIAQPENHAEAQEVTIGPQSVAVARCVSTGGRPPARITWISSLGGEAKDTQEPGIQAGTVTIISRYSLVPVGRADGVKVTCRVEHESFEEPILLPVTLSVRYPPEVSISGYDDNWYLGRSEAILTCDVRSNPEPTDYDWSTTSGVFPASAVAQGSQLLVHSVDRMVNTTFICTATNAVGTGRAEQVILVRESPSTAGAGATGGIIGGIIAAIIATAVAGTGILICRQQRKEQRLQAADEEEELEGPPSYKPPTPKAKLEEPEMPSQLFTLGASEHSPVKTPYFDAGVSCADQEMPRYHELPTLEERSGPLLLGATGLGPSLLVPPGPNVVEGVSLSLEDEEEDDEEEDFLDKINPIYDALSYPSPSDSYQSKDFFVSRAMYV

[4] = biological target: mouse PVRIG over-expressed on HEK293 cells (RC-287; PVRIG-FLAG RC-286) (mouse); experiment: FACS on cells OX mouse PVRIG, preliminary data
[5] = biological target: mouse PVRIG over-expressed on HEK293 cells (RC-287; PVRIG-FLAG RC-286) (mouse); experiment: FACS on cells OX mouse PVRIG
[6] = biological target: mouse PVRIG over-expressed on HEK293 cells (RC-287; PVRIG-FLAG RC-286) (mouse); experiment: FACS on HEK293 OX mouse PVRIG, 60 ug/ml, one of two sources
[7] = biological target: mouse PVRIG over-expressed on HEK293 cells (RC-287; PVRIG-FLAG RC-286) (mouse); experiment: FACS on HEK293 OX mouse PVRIG, 60 ug/ml, other of two sources

mouse PVRL2-his (R&D, 3869-N2; Sino Biological, 50318-M08H), sequence (P32507 32-351 limits assumed, stated change not applied): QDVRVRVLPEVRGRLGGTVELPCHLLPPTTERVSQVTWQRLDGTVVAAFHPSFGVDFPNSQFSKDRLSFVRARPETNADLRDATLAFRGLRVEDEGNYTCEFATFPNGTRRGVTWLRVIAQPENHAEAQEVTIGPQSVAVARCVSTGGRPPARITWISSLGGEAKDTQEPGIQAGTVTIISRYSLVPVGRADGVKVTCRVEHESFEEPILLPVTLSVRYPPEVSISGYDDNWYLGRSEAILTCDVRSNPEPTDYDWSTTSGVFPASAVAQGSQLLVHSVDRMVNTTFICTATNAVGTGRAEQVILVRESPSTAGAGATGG
mouse PVRL2 splice variant 1 (sv1) over-expressed on HEK293 cells (RC-334) (mouse), sequence (P32507 32-530, change not shown): as the sequence (P32507 32-530, change not shown) above
mouse PVRL2 endogenously expressed on B16-F10 cells (mouse), sequence (P32507 32-530): as the sequence (P32507 32-530, change not shown) above
custom Fc-fused mouse PVRL2 (GenScript), sequence (P32507 32-351 limits assumed): as the sequence (P32507 32-351 limits assumed, stated change not applied) above

fold binding vs empty vector cells [1]: 6 to 11 fold
concentration at saturation of binding [2]: 12.5 µg/mL
concentration at saturation of binding [3]: 12.5 µg/mL
Substance: PVRIG mECD-mIg fusion protein (ECD of mouse PVRIG fused to the Fc of mouse IgG2a) (Fc fusion)

fold binding [4]: 5 fold
Substance: custom Fc-fused mouse PVRL2 (GenScript) (from UniProt P32507 32-351) (Fc fusion)

fold binding [5]: 2 to 3 fold
fold binding vs empty vector cells [6]: 2 fold
fold binding vs empty vector cells [7]: 3 to 4 fold
Substance: mouse PVRL2-his (R&D, 3869-N2; Sino Biological, 50318-M08H) (from UniProt P32507 32-351) (ligand)
